Read-outs that look alike come from different tables or passages of the source.
Columns and labels:
Assay in all cases: cell-based or functional assay
[1] = target: Zven1 receptor on Wky12-22 cells (rat)
[2] = target: GPCR73a receptor (Homo sapiens (Human)) (UniProt Q8TCW9)
[3] = target: GPCR73a receptor (Homo sapiens (Human)) (UniProt Q8TCW9); remark: listed apart in the source
[4] = target: GPCR73b receptor (Homo sapiens (Human)) (UniProt Q8NFJ6)
[5] = target: GPCR73b receptor (Homo sapiens (Human)) (UniProt Q8NFJ6); remark: listed apart in the source

Chain of GPCR73b receptor (Homo sapiens (Human)) (Q8NFJ6 whole entry): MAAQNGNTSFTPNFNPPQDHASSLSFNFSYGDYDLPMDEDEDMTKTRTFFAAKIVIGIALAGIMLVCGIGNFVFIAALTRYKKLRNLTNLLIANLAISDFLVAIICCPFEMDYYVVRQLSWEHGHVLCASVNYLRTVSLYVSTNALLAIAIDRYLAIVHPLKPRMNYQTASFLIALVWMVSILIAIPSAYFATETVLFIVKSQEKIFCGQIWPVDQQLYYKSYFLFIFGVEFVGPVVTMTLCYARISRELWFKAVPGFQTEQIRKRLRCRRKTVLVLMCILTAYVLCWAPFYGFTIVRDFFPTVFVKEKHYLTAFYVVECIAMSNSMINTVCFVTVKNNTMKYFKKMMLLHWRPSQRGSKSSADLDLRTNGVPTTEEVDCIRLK
Chain of GPCR73a receptor (Homo sapiens (Human)) (Q8TCW9 whole entry): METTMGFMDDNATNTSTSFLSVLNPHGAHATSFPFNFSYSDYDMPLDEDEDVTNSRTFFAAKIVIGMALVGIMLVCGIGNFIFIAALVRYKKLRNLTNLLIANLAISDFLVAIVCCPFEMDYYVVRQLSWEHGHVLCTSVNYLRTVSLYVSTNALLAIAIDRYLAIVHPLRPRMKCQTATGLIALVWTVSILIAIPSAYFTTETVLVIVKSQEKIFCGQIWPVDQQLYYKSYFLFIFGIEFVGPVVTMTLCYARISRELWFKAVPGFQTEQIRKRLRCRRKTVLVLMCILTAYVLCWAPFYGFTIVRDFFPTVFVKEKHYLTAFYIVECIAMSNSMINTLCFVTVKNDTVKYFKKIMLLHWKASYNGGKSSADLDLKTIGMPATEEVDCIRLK

B1: Zven1 protein produced in baculovirus with a C-terminal Glu-Glu tag (ligand)
chain: AVITGACDKDSQCGGGMCCAVSIWVKSIRICTPMGKLGDSCHPLTRKVPFFGRRMHHTCPCLPGLACLRTSFNRFICLAQKGLEYMPMD
In the case of B1, the ERK-Map kinase activity EC50 in Wky12-22 cells (Arrayscan) [1] is reported as 0.5 nM, the SRE luciferase fold-induction at 1 ng/ml, Zven1 heated at 56 C for 30 minutes, Rat2 cells with GPCR73a (fold-induction) [2] is reported as 1.8 and the SRE luciferase fold-induction at 1 ng/ml, fresh Zven1, Rat2 cells with GPCR73a (fold-induction) [2] is reported as 2.5. For the same binder, the SRE luciferase fold-induction at 3.2 ng/ml, Zven1 heated at 56 C for 30 minutes, Rat2 cells with GPCR73a (fold-induction) [2] was 3.7, the SRE luciferase fold-induction at 3.2 ng/ml, fresh Zven1, Rat2 cells with GPCR73a (fold-induction) [2] was 7.1 and the SRE luciferase fold-induction at 10 ng/ml, Zven1 heated at 56 C for 30 minutes, Rat2 cells with GPCR73a (fold-induction) [2] was 10. The SRE luciferase fold-induction at 10 ng/ml, fresh Zven1, Rat2 cells with GPCR73a (fold-induction) [2] was 13.1, the SRE luciferase fold-induction at 32 ng/ml, Zven1 heated at 56 C for 30 minutes, Rat2 cells with GPCR73a (fold-induction) [2] was 14.8 and the SRE luciferase fold-induction at 32 ng/ml, fresh Zven1, Rat2 cells with GPCR73a (fold-induction) [2] was 18.7. The SRE luciferase fold-induction at 100 ng/ml, Zven1 heated at 56 C for 30 minutes, Rat2 cells with GPCR73a (fold-induction) [2] was 18.6 and the SRE luciferase fold-induction at 100 ng/ml, fresh Zven1, Rat2 cells with GPCR73a (fold-induction) [2] was 20.5.

B2: Zven2 ("endocrine-gland-derived vascular endothelial growth factor") protein purchased from Peprotech, Inc. (ligand)
chain: AVITGACERDVQCGAGTCCAISLWLRGLRMCTPLGREGEECHPGSHKVPFFRKRKHHTCPCLPNLLCSRFPDGRYRCSMDLKNINF
Binder B2 has an SRE luciferase fold-induction at 1 ng/ml, Rat2 cells with GPCR73a (fold-induction) [3] of 0.95, an SRE luciferase fold-induction at 3.2 ng/ml, Rat2 cells with GPCR73a (fold-induction) [3] of 1.3 and an SRE luciferase fold-induction at 10 ng/ml, Rat2 cells with GPCR73a (fold-induction) [3] of 2.6. For the same binder, the SRE luciferase fold-induction at 32 ng/ml, Rat2 cells with GPCR73a (fold-induction) [3] was 7.2, the SRE luciferase fold-induction at 320 ng/ml, Rat2 cells with GPCR73a (fold-induction) [3] was 20.5 and the SRE luciferase fold-induction at 1000 ng/ml, Rat2 cells with GPCR73a (fold-induction) [3] was 15. It also gave an SRE luciferase fold-induction at 1 ng/ml, Rat2 cells with GPCR73a (fold-induction) [2] of 1.2, an SRE luciferase fold-induction at 3.2 ng/ml, Rat2 cells with GPCR73a (fold-induction) [2] of 1.6 and an SRE luciferase fold-induction at 10 ng/ml, Rat2 cells with GPCR73a (fold-induction) [2] of 2.5. It also gave an SRE luciferase fold-induction at 32 ng/ml, Rat2 cells with GPCR73a (fold-induction) [2] of 5.8, an SRE luciferase fold-induction at 100 ng/ml, Rat2 cells with GPCR73a (fold-induction) [2] of 11.4 and an SRE luciferase fold-induction at 320 ng/ml, Rat2 cells with GPCR73a (fold-induction) [2] of 24.4. It also gave an SRE luciferase fold-induction at 1000 ng/ml, Rat2 cells with GPCR73a (fold-induction) [2] of 20, an SRE luciferase fold-induction at 1 ng/ml, Rat2 cells with GPCR73b (fold-induction) [4] of 1.1 and an SRE luciferase fold-induction at 3.2 ng/ml, Rat2 cells with GPCR73b (fold-induction) [4] of 1.3. The SRE luciferase fold-induction at 10 ng/ml, Rat2 cells with GPCR73b (fold-induction) [4] was 1.8, the SRE luciferase fold-induction at 32 ng/ml, Rat2 cells with GPCR73b (fold-induction) [4] was 2.8 and the SRE luciferase fold-induction at 100 ng/ml, Rat2 cells with GPCR73b (fold-induction) [4] was 5.6. For the same binder, the SRE luciferase fold-induction at 320 ng/ml, Rat2 cells with GPCR73b (fold-induction) [4] was 8.3, the SRE luciferase fold-induction at 1000 ng/ml, Rat2 cells with GPCR73b (fold-induction) [4] was 8.4 and the SRE luciferase fold-induction at 3.2 ng/ml, Rat2 cells with GPCR73b (fold-induction) [5] was 1.4. The SRE luciferase fold-induction at 32 ng/ml, Rat2 cells with GPCR73b (fold-induction) [5] was 2.7, the SRE luciferase fold-induction at 100 ng/ml, Rat2 cells with GPCR73b (fold-induction) [5] was 4.1 and the SRE luciferase fold-induction at 320 ng/ml, Rat2 cells with GPCR73b (fold-induction) [5] was 5.8. For the same binder, the SRE luciferase fold-induction at 1000 ng/ml, Rat2 cells with GPCR73b (fold-induction) [5] was 6.1.

Reference: patent US20040162238A1
